# According to the supplement of paper PMC9112550, “Optimization of the antimicrobial peptide Bac7 by deep mutational scanning” (BMC Biology, 2022):
# System: Escherichia coli TOP10
# Test: shrunken log2 fold change of peptide-encoding DNA abundance (4.5 h post-induction vs induction); higher = less antimicrobial activity (less host growth inhibition)
# Conditions: time post-induction: 4.5 h; library: site-saturation at positions 5, 18, 19, 20
# 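Further: peptides expressed intracellularly from a pBAD plasmid library in pooled LB shake-flask culture, induced with 0.3% L-arabinose, DNA abundance read by NGS, three biological replicates, DESeq2 with apeglm shrinkage.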
row,Sequence,shrunken log2 fold change
1,RRIRQRPPRLPRPRPRPYYSPRP,-0.39
2,RRIRRRPPRLPRPRPRPNKGPRP,0.128
3,RRIRNRPPRLPRPRPRPIVGPRP,0.003
4,RRIRKRPPRLPRPRPRPRPPPRP,1.15
5,RRIRKRPPRLPRPRPRPVKLPRP,-0.0408
6,RRIRHRPPRLPRPRPRPEQYPRP,-0.224
7,RRIRRRPPRLPRPRPRPFVWPRP,-0.218
8,RRIRCRPPRLPRPRPRPYFIPRP,-1.18
9,RRIRHRPPRLPRPRPRPCFMPRP,-0.404
10,RRIRLRPPRLPRPRPRPGLCPRP,0.234
11,RRIRTRPPRLPRPRPRPCGIPRP,0.0859
12,RRIRCRPPRLPRPRPRPCLCPRP,-0.185
13,RRIRMRPPRLPRPRPRPSGCPRP,0.44
14,RRIRPRPPRLPRPRPRPPMNPRP,-0.036
15,RRIRKRPPRLPRPRPRPGSWPRP,0.571
16,RRIRTRPPRLPRPRPRPEQNPRP,0.189
17,RRIRNRPPRLPRPRPRPNCDPRP,-0.237
18,RRIRFRPPRLPRPRPRPCHVPRP,0.0269
19,RRIRNRPPRLPRPRPRPNAKPRP,-0.109
20,RRIRLRPPRLPRPRPRPIIAPRP,-0.0536
21,RRIRHRPPRLPRPRPRPVDLPRP,-0.314
22,RRIRQRPPRLPRPRPRPHKPPRP,-0.0272
23,RRIRLRPPRLPRPRPRPPVHPRP,0.0348
24,RRIRLRPPRLPRPRPRPDLKPRP,-0.0789
25,RRIRGRPPRLPRPRPRPFAGPRP,0.00108

row,Sequence,shrunken log2 fold change
1,RRIRVRPPRLPRPRPRPLVPPRP,-0.0493
2,RRIRMRPPRLPRPRPRPTNAPRP,0.408
3,RRIRGRPPRLPRPRPRPCIWPRP,0.208
4,RRIRFRPPRLPRPRPRPFHIPRP,-0.663
5,RRIRDRPPRLPRPRPRPTHNPRP,-0.00516
6,RRIRHRPPRLPRPRPRPPHLPRP,0.0576
7,RRIRIRPPRLPRPRPRPGISPRP,-0.27
8,RRIRYRPPRLPRPRPRPFGVPRP,-0.306
9,RRIRLRPPRLPRPRPRPESIPRP,0.0419
10,RRIRPRPPRLPRPRPRPYTTPRP,-0.52
11,RRIRYRPPRLPRPRPRPFGWPRP,0.102
12,RRIRCRPPRLPRPRPRPGCRPRP,0.569
13,RRIRYRPPRLPRPRPRPHIFPRP,-0.255
14,RRIRTRPPRLPRPRPRPFVWPRP,0.00322
15,RRIRRRPPRLPRPRPRPKQTPRP,0.186
16,RRIRARPPRLPRPRPRPLYLPRP,-0.367
17,RRIRRRPPRLPRPRPRPFDIPRP,-0.0362
18,RRIRQRPPRLPRPRPRPCVKPRP,-0.0496
19,RRIRGRPPRLPRPRPRPRDIPRP,0.373
20,RRIRCRPPRLPRPRPRPLSMPRP,-0.207
21,RRIRHRPPRLPRPRPRPNIPPRP,-0.234
22,RRIRKRPPRLPRPRPRPGHTPRP,0.272
23,RRIRARPPRLPRPRPRPWFFPRP,0.089
24,RRIRKRPPRLPRPRPRPNCTPRP,0.335
25,RRIRRRPPRLPRPRPRPYRWPRP,-0.356

row,Sequence,shrunken log2 fold change
1,RRIRKRPPRLPRPRPRPDPKPRP,0.549
2,RRIRTRPPRLPRPRPRPHYQPRP,-0.782
3,RRIRMRPPRLPRPRPRPQTQPRP,2.46
4,RRIRDRPPRLPRPRPRPRELPRP,0.0713
5,RRIRMRPPRLPRPRPRPAAIPRP,0.456
6,RRIRWRPPRLPRPRPRPAKHPRP,0.192
7,RRIRIRPPRLPRPRPRPMHEPRP,-0.0221
8,RRIRRRPPRLPRPRPRPAWIPRP,0.358
9,RRIRLRPPRLPRPRPRPEFVPRP,0.0203
10,RRIRMRPPRLPRPRPRPQSAPRP,0.055
11,RRIRHRPPRLPRPRPRPMTVPRP,0.055
12,RRIRVRPPRLPRPRPRPMPNPRP,-0.116
13,RRIRLRPPRLPRPRPRPEPEPRP,0.551
14,RRIRFRPPRLPRPRPRPVYDPRP,-0.977
15,RRIRGRPPRLPRPRPRPERTPRP,1.21
16,RRIRNRPPRLPRPRPRPPHIPRP,-0.311
17,RRIRDRPPRLPRPRPRPPHTPRP,0.198
18,RRIRTRPPRLPRPRPRPDYDPRP,0.00888
19,RRIRCRPPRLPRPRPRPDDCPRP,0.112
20,RRIRTRPPRLPRPRPRPGVIPRP,0.0978
21,RRIRYRPPRLPRPRPRPHIKPRP,-0.887
22,RRIRHRPPRLPRPRPRPRIHPRP,-0.473
23,RRIRSRPPRLPRPRPRPTQFPRP,0.212
24,RRIRHRPPRLPRPRPRPKCGPRP,0.0031
25,RRIRVRPPRLPRPRPRPKGKPRP,0.102

row,Sequence,shrunken log2 fold change
1,RRIRYRPPRLPRPRPRPCQVPRP,-0.116
2,RRIRIRPPRLPRPRPRPYWQPRP,-0.774
3,RRIRDRPPRLPRPRPRPVKNPRP,-0.0293
4,RRIRTRPPRLPRPRPRPRARPRP,0.63
5,RRIRTRPPRLPRPRPRPCACPRP,0.0169
6,RRIRKRPPRLPRPRPRPMTNPRP,0.184
7,RRIRPRPPRLPRPRPRPMTFPRP,-0.0264
8,RRIRIRPPRLPRPRPRPIKSPRP,-0.462
9,RRIRVRPPRLPRPRPRPAGNPRP,0.141
10,RRIRGRPPRLPRPRPRPIWCPRP,0.0438
11,RRIRFRPPRLPRPRPRPGIPPRP,-0.183
12,RRIRGRPPRLPRPRPRPLGWPRP,1.27
13,RRIRFRPPRLPRPRPRPWCDPRP,-0.329
14,RRIRFRPPRLPRPRPRPKNLPRP,-0.225
15,RRIRMRPPRLPRPRPRPAFNPRP,0.144
16,RRIRCRPPRLPRPRPRPAAEPRP,0.829
17,RRIRRRPPRLPRPRPRPGECPRP,0.0146
18,RRIRSRPPRLPRPRPRPHCNPRP,-0.36
19,RRIRQRPPRLPRPRPRPDAAPRP,1.08
20,RRIRCRPPRLPRPRPRPVPTPRP,0.116
21,RRIRTRPPRLPRPRPRPEPGPRP,0.0826
22,RRIRQRPPRLPRPRPRPRCVPRP,1.47
23,RRIRYRPPRLPRPRPRPNANPRP,-2
24,RRIRFRPPRLPRPRPRPMPHPRP,-0.0704
25,RRIRTRPPRLPRPRPRPADFPRP,0.0361

row,Sequence,shrunken log2 fold change
1,RRIRQRPPRLPRPRPRPLYMPRP,-0.198
2,RRIRLRPPRLPRPRPRPLEHPRP,0.0313
3,RRIRHRPPRLPRPRPRPDKNPRP,-0.496
4,RRIRFRPPRLPRPRPRPDCNPRP,-0.179
5,RRIRCRPPRLPRPRPRPMEIPRP,-1.16
6,RRIRDRPPRLPRPRPRPNCMPRP,0.111
7,RRIRYRPPRLPRPRPRPKEHPRP,-0.366
8,RRIRTRPPRLPRPRPRPHGGPRP,0.384
9,RRIRKRPPRLPRPRPRPWKCPRP,-0.0018
10,RRIRWRPPRLPRPRPRPYPTPRP,-0.281
11,RRIRMRPPRLPRPRPRPKCSPRP,-0.0186
12,RRIRDRPPRLPRPRPRPPDYPRP,-0.0704
13,RRIRNRPPRLPRPRPRPSSIPRP,-0.0475
14,RRIRRRPPRLPRPRPRPSPAPRP,0.868
15,RRIRPRPPRLPRPRPRPLVFPRP,0.257
16,RRIRTRPPRLPRPRPRPTRKPRP,0.443
17,RRIRKRPPRLPRPRPRPENKPRP,0.528
18,RRIRGRPPRLPRPRPRPFDKPRP,-0.663
19,RRIRYRPPRLPRPRPRPDNAPRP,-0.0635
20,RRIRDRPPRLPRPRPRPQICPRP,-0.0334
21,RRIRMRPPRLPRPRPRPRFMPRP,0.385
22,RRIRDRPPRLPRPRPRPRAIPRP,0.108
23,RRIRWRPPRLPRPRPRPQKAPRP,0.123
24,RRIRLRPPRLPRPRPRPDFWPRP,0.484
25,RRIRTRPPRLPRPRPRPMPCPRP,0.159

row,Sequence,shrunken log2 fold change
1,RRIRHRPPRLPRPRPRPAGCPRP,0.242
2,RRIRARPPRLPRPRPRPSGHPRP,0.168
3,RRIRKRPPRLPRPRPRPVFKPRP,0.288
4,RRIRLRPPRLPRPRPRPPHNPRP,0.504
5,RRIRTRPPRLPRPRPRPQSGPRP,0.00577
6,RRIRIRPPRLPRPRPRPVMYPRP,-0.052
7,RRIRWRPPRLPRPRPRPSRVPRP,0.253
8,RRIRERPPRLPRPRPRPVPRPRP,0.151
9,RRIRSRPPRLPRPRPRPYAWPRP,-0.087
10,RRIRNRPPRLPRPRPRPGMRPRP,0.504
11,RRIRDRPPRLPRPRPRPNKFPRP,-0.293
12,RRIRERPPRLPRPRPRPMDYPRP,-0.214
13,RRIRARPPRLPRPRPRPWMKPRP,-0.172
14,RRIRMRPPRLPRPRPRPCDVPRP,0.0259
15,RRIRFRPPRLPRPRPRPRNCPRP,-0.132
16,RRIRWRPPRLPRPRPRPCIQPRP,-0.394
17,RRIRKRPPRLPRPRPRPLVTPRP,0.24
18,RRIRWRPPRLPRPRPRPCQLPRP,-0.0812
19,RRIRRRPPRLPRPRPRPTEDPRP,0.477
20,RRIRGRPPRLPRPRPRPMKCPRP,0.0384
21,RRIRGRPPRLPRPRPRPILRPRP,0.161
22,RRIRRRPPRLPRPRPRPSCKPRP,-0.398
23,RRIRYRPPRLPRPRPRPLLDPRP,-0.296
24,RRIRFRPPRLPRPRPRPRDWPRP,0.308
25,RRIRIRPPRLPRPRPRPDKFPRP,-0.565
